Laboratory results taken from patent publication US20100260763A1 (DOMANTIS, published 2010).

What was measured:
[1] = target: T1, human TNFR1, soluble recombinant protein (human, UniProt P19438 22-211, limits assumed, biotinylated in the BIAcore assays (coupling via primary amines)); assay: phage ELISA, plate coated with 1 nM TNFR1, anti-M13-HRP; trypsin 1 mg/ml 1 h room temp; phage input 2.26E+10
T1 construct: also called biotinylated TNFR1; human recombinant E. coli-expressed human TNFR1
T1 sequence (looked up): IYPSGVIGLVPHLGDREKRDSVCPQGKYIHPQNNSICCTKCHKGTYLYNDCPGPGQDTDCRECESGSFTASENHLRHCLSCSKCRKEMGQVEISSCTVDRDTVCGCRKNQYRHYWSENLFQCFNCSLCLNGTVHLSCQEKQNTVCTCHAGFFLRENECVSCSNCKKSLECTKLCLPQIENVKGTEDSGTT

[2] = target: T1, human TNFR1, soluble recombinant protein; assay: phage ELISA, plate coated with 1 nM TNFR1, anti-M13-HRP; trypsin 100 µg/ml 1 h room temp; phage input 7.05E+08
[3] = target: T1, human TNFR1, soluble recombinant protein; assay: phage ELISA, plate coated with 1 nM TNFR1, anti-M13-HRP; trypsin 10 µg/ml 1 h room temp; phage input 2.82E+09
[4] = target: T1, human TNFR1, soluble recombinant protein; assay: phage ELISA, plate coated with 1 nM TNFR1, anti-M13-HRP; trypsin 1 mg/ml 1 h room temp; phage input 3.52E+08
[5] = target: T1, human TNFR1, soluble recombinant protein; assay: phage ELISA, plate coated with 1 nM TNFR1, anti-M13-HRP; trypsin 100 µg/ml 1 h room temp; phage input 2.82E+09
[6] = target: T1, human TNFR1, soluble recombinant protein; assay: phage ELISA, plate coated with 1 nM TNFR1, anti-M13-HRP; trypsin 100 µg/ml 1 h room temp; phage input 4.51E+10
[7] = target: T1, human TNFR1, soluble recombinant protein; assay: phage ELISA, plate coated with 1 nM TNFR1, anti-M13-HRP; trypsin 1 mg/ml 1 h room temp; phage input 5.64E+09
[8] = target: T1, human TNFR1, soluble recombinant protein; assay: phage ELISA, plate coated with 1 nM TNFR1, anti-M13-HRP; trypsin 10 µg/ml 1 h room temp; phage input 7.05E+08
[9] = target: T1, human TNFR1, soluble recombinant protein; assay: phage ELISA, plate coated with 1 nM TNFR1, anti-M13-HRP; trypsin 100 µg/ml 1 h room temp; phage input 1.13E+10
[10] = target: T1, human TNFR1, soluble recombinant protein; assay: phage ELISA, plate coated with 1 nM TNFR1, anti-M13-HRP; trypsin 100 µg/ml 1 h room temp; phage input 5.64E+09
[11] = target: T1, human TNFR1, soluble recombinant protein; assay: phage ELISA, plate coated with 1 nM TNFR1, anti-M13-HRP; trypsin 0 µg/ml; phage input 3.52E+08
[12] = target: T1, human TNFR1, soluble recombinant protein; assay: phage ELISA, plate coated with 1 nM TNFR1, anti-M13-HRP; trypsin 0 µg/ml; phage input 1.41E+09

## DOM1h-131 displayed on phage
[1]
  phage ELISA read-out: 0.229
[2]
  phage ELISA read-out: 0.084
[3]
  phage ELISA read-out: 0.573
[4]
  phage ELISA read-out: 0.08
[5]
  phage ELISA read-out: 0.141
[6]
  phage ELISA read-out: 0.418
[7]
  phage ELISA read-out: 0.133
[8]
  phage ELISA read-out: 0.286
[9]
  phage ELISA read-out: 0.284
[10]
  phage ELISA read-out: 0.196
[11]
  phage ELISA read-out: 0.577
[12]
  phage ELISA read-out: 0.85
